Measurements reported in the array DNA melting data of Ke et al..

Assay: melting temperature; melt of duplexes
Conditions: sodium 0.0675 M; strand 1 µM

| Substance | Tm [°C] |
| --- | --- |
| CGACGTGCAGTATGTGCTG+CAGCACATCGCGCACGTCG ((((((((...((((((((+))))))))...)))))))) | 49.9 |
| CGACGTGCAGTATGTGCTG+CAGCACATCGTGCACGTCG (((((((((..((((((((+))))))))..))))))))) | 48.2 |
| CGACGTGCAGTATGTGCTG+CAGCACATCTCGCACGTCG ((((((((...((((((((+))))))))...)))))))) | 50.1 |
| CGACGTGCAGTATGTGCTG+CAGCACATGACGCACGTCG ((((((((...((((((((+))))))))...)))))))) | 49.1 |
| CGACGTGCAGTATGTGCTG+CAGCACATGAGGCACGTCG ((((((((...((((((((+))))))))...)))))))) | 51.4 |
| CGACGTGCAGTATGTGCTG+CAGCACATGCAGCACGTCG ((((((((.(.((((((((+)))))))).).)))))))) | 54.7 |
| CGACGTGCAGTATGTGCTG+CAGCACATGCGGCACGTCG ((((((((.(.((((((((+)))))))).).)))))))) | 55.3 |
| CGACGTGCAGTATGTGCTG+CAGCACATGGAGCACGTCG ((((((((...((((((((+))))))))...)))))))) | 50.6 |
| CGACGTGCAGTATGTGCTG+CAGCACATGTAGCACGTCG ((((((((...((((((((+))))))))...)))))))) | 49.8 |
| CGACGTGCAGTATGTGCTG+CAGCACATTCAGCACGTCG ((((((((.(.((((((((+)))))))).).)))))))) | 51.1 |
| CGACGTGCAGTATGTGCTG+CAGCACATTGAGCACGTCG ((((((((...((((((((+))))))))...)))))))) | 49.1 |
| CGACGTGCAGTATGTGCTG+CAGCACATTGTGCACGTCG (((((((((..((((((((+))))))))..))))))))) | 48.6 |
| CGACGTGCAGTATGTGCTG+CAGCACATTTAGCACGTCG ((((((((...((((((((+))))))))...)))))))) | 48.6 |
| CGACGTGCAGTATGTGCTG+CAGCACATTTCGCACGTCG ((((((((...((((((((+))))))))...)))))))) | 49.7 |
| CGACGTGCATAATGTGCTG+CAGCACATAACGCACGTCG ((((((((.(.((((((((+)))))))).).)))))))) | 48.8 |
| CGACGTGCATAATGTGCTG+CAGCACATAAGGCACGTCG ((((((((.(.((((((((+)))))))).).)))))))) | 51.3 |
| CGACGTGCATAATGTGCTG+CAGCACATACAGCACGTCG ((((((((...((((((((+))))))))...)))))))) | 48.2 |
| CGACGTGCATAATGTGCTG+CAGCACATACGGCACGTCG ((((((((...((((((((+))))))))...)))))))) | 47.3 |
| CGACGTGCATAATGTGCTG+CAGCACATAGAGCACGTCG ((((((((...((((((((+))))))))...)))))))) | 48.7 |
| CGACGTGCATAATGTGCTG+CAGCACATAGTGCACGTCG (((((((((..((((((((+))))))))..))))))))) | 48.7 |
| CGACGTGCATAATGTGCTG+CAGCACATATCGCACGTCG ((((((((...((((((((+))))))))...)))))))) | 48.6 |
| CGACGTGCATAATGTGCTG+CAGCACATCACGCACGTCG ((((((((.(.((((((((+)))))))).).)))))))) | 47.6 |
| CGACGTGCATAATGTGCTG+CAGCACATCCGGCACGTCG ((((((((...((((((((+))))))))...)))))))) | 48.3 |
| CGACGTGCATAATGTGCTG+CAGCACATCGCGCACGTCG ((((((((...((((((((+))))))))...)))))))) | 46.9 |
| CGACGTGCATAATGTGCTG+CAGCACATCGGGCACGTCG ((((((((...((((((((+))))))))...)))))))) | 48.2 |
| CGACGTGCATAATGTGCTG+CAGCACATCTGGCACGTCG ((((((((...((((((((+))))))))...)))))))) | 49.3 |

| Substance | Tm [°C] |
| --- | --- |
| CGACGTGCATAATGTGCTG+CAGCACATCTTGCACGTCG (((((((((..((((((((+))))))))..))))))))) | 50.8 |
| CGACGTGCATAATGTGCTG+CAGCACATGACGCACGTCG ((((((((.(.((((((((+)))))))).).)))))))) | 50.5 |
| CGACGTGCATAATGTGCTG+CAGCACATGCTGCACGTCG (((((((((..((((((((+))))))))..))))))))) | 50 |
| CGACGTGCATAATGTGCTG+CAGCACATGGGGCACGTCG ((((((((...((((((((+))))))))...)))))))) | 51.2 |
| CGACGTGCATAATGTGCTG+CAGCACATGGTGCACGTCG (((((((((..((((((((+))))))))..))))))))) | 52.6 |
| CGACGTGCATAATGTGCTG+CAGCACATGTCGCACGTCG ((((((((...((((((((+))))))))...)))))))) | 52.2 |
| CGACGTGCATAATGTGCTG+CAGCACATTACGCACGTCG ((((((((.((((((((((+)))))))))).)))))))) | 54.4 |
| CGACGTGCATAATGTGCTG+CAGCACATTAGGCACGTCG ((((((((.((((((((((+)))))))))).)))))))) | 57.7 |
| CGACGTGCATAATGTGCTG+CAGCACATTATGCACGTCG (((((((((((((((((((+))))))))))))))))))) | 61.8 |
| CGACGTGCATAATGTGCTG+CAGCACATTTAGCACGTCG ((((((((..(((((((((+)))))))))..)))))))) | 53.2 |
| CGACGTGCATCATGTGCTG+CAGCACATACCGCACGTCG ((((((((...((((((((+))))))))...)))))))) | 46.6 |
| CGACGTGCATCATGTGCTG+CAGCACATACTGCACGTCG (((((((((..((((((((+))))))))..))))))))) | 49.7 |
| CGACGTGCATCATGTGCTG+CAGCACATAGCGCACGTCG ((((((((...((((((((+))))))))...)))))))) | 48.2 |
| CGACGTGCATCATGTGCTG+CAGCACATATCGCACGTCG ((((((((...((((((((+))))))))...)))))))) | 47.4 |
| CGACGTGCATCATGTGCTG+CAGCACATATTGCACGTCG (((((((((..((((((((+))))))))..))))))))) | 50.3 |
| CGACGTGCATCATGTGCTG+CAGCACATCCAGCACGTCG ((((((((...((((((((+))))))))...)))))))) | 46.6 |
| CGACGTGCATCATGTGCTG+CAGCACATCGAGCACGTCG ((((((((...((((((((+))))))))...)))))))) | 48.9 |
| CGACGTGCATCATGTGCTG+CAGCACATCGTGCACGTCG (((((((((..((((((((+))))))))..))))))))) | 47.2 |
| CGACGTGCATCATGTGCTG+CAGCACATCTAGCACGTCG ((((((((...((((((((+))))))))...)))))))) | 47.3 |
| CGACGTGCATCATGTGCTG+CAGCACATCTCGCACGTCG ((((((((...((((((((+))))))))...)))))))) | 46.5 |
| CGACGTGCATCATGTGCTG+CAGCACATGAGGCACGTCG ((((((((.((((((((((+)))))))))).)))))))) | 60.8 |
| CGACGTGCATCATGTGCTG+CAGCACATGATGCACGTCG (((((((((((((((((((+))))))))))))))))))) | 64.8 |
| CGACGTGCATCATGTGCTG+CAGCACATGGAGCACGTCG ((((((((..(((((((((+)))))))))..)))))))) | 55.5 |
| CGACGTGCATCATGTGCTG+CAGCACATGGGGCACGTCG ((((((((..(((((((((+)))))))))..)))))))) | 56.5 |
| CGACGTGCATCATGTGCTG+CAGCACATGGTGCACGTCG (((((((((.(((((((((+))))))))).))))))))) | 60.1 |
| CGACGTGCATCATGTGCTG+CAGCACATGTGGCACGTCG ((((((((..(((((((((+)))))))))..)))))))) | 55 |
